Measured values taken from doi:10.1101/2022.01.11.475947.

Target: prefusion-stabilized SARS-CoV-2 spike protein (S-clamp) (SARS-CoV-2)
Test: SEC

prefusion-stabilized SARS-CoV-2 spike protein (S-clamp)
stoichiometry N: 3
